Results: US20030224390A1, “Method of identifying conformation-sensitive binding peptides and uses thereof” (Karo Bio AB, priority 2000, published 2003)

T1: androgen receptor (Homo sapiens, UniProt P10275)
T1 sequence (P10275 1-920): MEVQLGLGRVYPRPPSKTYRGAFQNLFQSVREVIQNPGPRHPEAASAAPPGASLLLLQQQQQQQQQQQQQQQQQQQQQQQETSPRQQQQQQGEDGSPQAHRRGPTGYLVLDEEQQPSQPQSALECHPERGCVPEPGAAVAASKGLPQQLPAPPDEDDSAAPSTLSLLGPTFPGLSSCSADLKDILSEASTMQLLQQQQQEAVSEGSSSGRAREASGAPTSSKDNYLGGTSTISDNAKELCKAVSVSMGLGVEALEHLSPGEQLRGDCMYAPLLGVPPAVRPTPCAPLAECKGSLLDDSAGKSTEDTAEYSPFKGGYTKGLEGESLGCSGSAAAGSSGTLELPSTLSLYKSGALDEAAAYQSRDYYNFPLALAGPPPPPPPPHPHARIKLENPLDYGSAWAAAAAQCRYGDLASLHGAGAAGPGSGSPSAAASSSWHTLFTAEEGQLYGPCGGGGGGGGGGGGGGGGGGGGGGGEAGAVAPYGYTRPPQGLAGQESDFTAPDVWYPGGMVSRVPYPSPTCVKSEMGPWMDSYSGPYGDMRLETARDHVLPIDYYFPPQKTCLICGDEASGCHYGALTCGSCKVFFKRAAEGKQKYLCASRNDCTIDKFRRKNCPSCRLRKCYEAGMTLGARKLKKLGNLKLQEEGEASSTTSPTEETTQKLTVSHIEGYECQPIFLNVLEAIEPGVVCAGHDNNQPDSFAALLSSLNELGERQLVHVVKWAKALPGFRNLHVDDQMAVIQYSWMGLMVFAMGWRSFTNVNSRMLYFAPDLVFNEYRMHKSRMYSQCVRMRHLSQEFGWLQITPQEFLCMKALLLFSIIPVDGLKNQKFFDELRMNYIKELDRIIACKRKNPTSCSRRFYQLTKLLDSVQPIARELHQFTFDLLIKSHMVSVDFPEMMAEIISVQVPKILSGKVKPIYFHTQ

T2: Gal4 transcriptional activation domain (AD) fused in frame with AR (pGAD-C2) (yeast, UniProt P10275 1-920, limits assumed)
T2 sequence (looked up): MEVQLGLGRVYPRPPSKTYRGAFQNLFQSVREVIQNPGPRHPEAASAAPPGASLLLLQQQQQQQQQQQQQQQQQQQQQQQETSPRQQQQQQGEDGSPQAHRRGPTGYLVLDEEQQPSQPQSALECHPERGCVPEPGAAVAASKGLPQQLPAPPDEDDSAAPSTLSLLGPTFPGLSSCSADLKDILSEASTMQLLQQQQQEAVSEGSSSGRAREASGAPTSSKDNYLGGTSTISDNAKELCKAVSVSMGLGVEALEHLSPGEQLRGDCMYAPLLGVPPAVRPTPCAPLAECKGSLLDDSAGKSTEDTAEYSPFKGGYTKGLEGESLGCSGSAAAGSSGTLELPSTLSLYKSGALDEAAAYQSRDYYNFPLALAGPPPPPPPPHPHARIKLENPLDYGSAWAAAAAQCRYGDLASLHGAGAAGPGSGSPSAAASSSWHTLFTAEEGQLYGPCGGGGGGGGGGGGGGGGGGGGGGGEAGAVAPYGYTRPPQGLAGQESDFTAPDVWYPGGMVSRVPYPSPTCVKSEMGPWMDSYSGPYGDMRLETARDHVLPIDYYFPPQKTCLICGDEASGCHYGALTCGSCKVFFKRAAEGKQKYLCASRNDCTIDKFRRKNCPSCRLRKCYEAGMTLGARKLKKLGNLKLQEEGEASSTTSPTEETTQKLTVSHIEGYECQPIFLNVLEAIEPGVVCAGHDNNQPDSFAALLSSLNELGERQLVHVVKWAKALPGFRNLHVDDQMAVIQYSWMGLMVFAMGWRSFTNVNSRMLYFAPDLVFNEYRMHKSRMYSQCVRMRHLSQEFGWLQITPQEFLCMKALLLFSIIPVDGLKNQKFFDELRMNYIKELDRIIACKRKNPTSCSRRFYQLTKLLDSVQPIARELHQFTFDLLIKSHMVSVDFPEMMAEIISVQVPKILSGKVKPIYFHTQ


Experiments:
androgen receptor [1] = target: T1, androgen receptor; experiment: Yeast two-hybrid screening of unbiased X15 peptide library, ligand induced β-galactosidase activity (FIG. 3, Table 503); assay type: cell-based; parameters: expressed in transfected cells; host or cells: Saccharomyces cerevisiae PJ69-4α; ligand induced β-galactosidase activity, No Lig / ligand induced β-galactosidase activity, DHT / ligand induced β-galactosidase activity, CPA / ligand induced β-galactosidase activity, RU / ligand induced β-galactosidase activity, Test / ligand induced β-galactosidase activity, MPA: unit not given here
Source text: Our library contained predominantly 15 random amino acid residues/peptide in order to identify motifs that might interact with nuclear receptor domains. If ligand is provided to the cells, one can screen for peptides that interact with the ligand-bound receptor. […] Included at the ends of the oligonucleotide were the synthetic restriction endonuclease cleavage sites, EcoRI or Mfe I (5′ end) and Sal I (3′ end). Oligonucleotides were annealed, then cleaved with excess restriction endonuclease and purified on agarose gels. The purified set of oligonucleotides was subcloned as an in-frame carboxy-terminal fusion to a Gal4 DNA binding domain (plasmid vector pMA424 derivative). […] The transformation mix was divided and grown on plates of selective media containing ligand and 25 mM 3-aminotriazole at 30° C. until colonies appeared in 3-7 days. […] Dihydrotestosterone (DHT) and medroxyprogesterone (MPA) were added to the media at 100 nM to identify peptides that interact with the receptor in the presence of ligand. After colonies appeared they were picked and dispersed into individual wells of a 96-well plate containing rich media (YPD).
To determine ligand dependence, two microliter aliquots were removed from the cell suspension, and arrayed and spotted onto each of two rectangular agar plates, one with 100 nM ligand and one without ligand. Growth was monitored daily.
A secondary test of ligand dependent activation was performed using the integrated GAL4-driven lacZ gene. Cell suspensions of the initial positive clones were diluted 20-fold into 20 microliters of rich media in a microplate and grown overnight at 30° C. in the presence and absence of ligand. Microplates were centrifuged for 5 minutes at 3000 rpm in a swinging table top centrifuge to pellet the yeast cells, and the overlying media was aspirated. […] An OD650 density determination was made to normalize the β-galactosidase activity. β-galactosidase activity was monitored following the addition of buffer containing chlorophenol red-β-galactopyranoside (CPRG) (Boehringer Mannheim) substrate at a final concentration of 0.5 mM. […] The maximum slope value of this measurement was normalized to cell density from the initial OD650 value, and the relative ligand dependence of β-galactosidase was determined by comparing the values plus and minus ligand.
In FIG. 3, all of these ligands were tested. The plasmids from true positives were extracted using standard yeast extraction protocols and re-transformed to verify the positive phenotype.

androgen receptor [2] = target: T1, androgen receptor; assay type: cell-based; parameters: expressed in transfected cells
androgen receptor [3] = target: T1, androgen receptor; assay type: cell-based; parameters: expressed in transfected cells; remark: listed apart in the source
Source text: We used a mammalian two-hybrid system to determine specificities of the AR-binding peptides previously identified, through screening of the aforementioned yeast library, as ligand-dependent in their binding activity. Ligand was provided to the cells so the interaction could be observed. The human hepatoma cell line, Huh-7, was used as the recipient of two-hybrid vectors, pM and pVP16 (Clontech) (FIGS. 6A and 6B), containing fusions with peptide and AR, respectively. According to Clontech literature, the Clontech vectors pM and VP16 generate fusions of protein X with the GAL4 DNA-BD and fusions of protein Y with the VP16AD, in the Mammalian MM Two-Hybrid Assay Kit (#K1602-1). (Note: pM and VP16 contain unique cloning sites in the same order and reading frame as the DNA-BD and AD, respectively, vectors in the yeast […] Two-Hybrid Systems.) A third vector, pG5CAT, provides a CAT reporter gene under the control of a GAL4-responsive element and minimal promoter of the adenovirus E1b. The three vectors are cotransfected into any suitable mammalian host cell line by standard methods. The interaction between proteins X and Y is then assayed by measuring CAT gene expression by any standard method. In the absence of activation (i.e., no protein-protein interaction), the minimal E1b promoter will not express significant levels of CAT.
Briefly, cells are seeded in a 24-well culture plate to a density of 50-80% confluence in phenol red-free media containing charcoal-dextran stripped fetal bovine serum (10%). Following incubation overnight, cells are transfected with plasmids pM-peptide, pVP16-AR, pCMV-b-gal, and p5XGAL-Luc3 DNAs using lipofectamine 2000 (LifeTech) according to the manufacturer's protocol. Transfections are allowed to proceed for 6 hours and the transfection media is aspirated and replaced with recovery media for 18 hours. Following the recovery period, cells are treated with compound for 24 hours prior to cell harvesting. Cells are washed with PBS and then lysed using the lysis buffer from the Galacto-Light Plus β-galactosidase assay kit (Tropix). Assays for luciferase and β-galactosidase were performed as described by the manufacturer. Peptide/AR interactions are described in terms of the luciferase activity normalized for transfection efficiency using β-galactosidase activity (see FIG. 4A). Two types of useful information arose from these methods: 1) we generated a panel of useful peptide probes to analyze the conformational state of AR, and 2) we “fingerprinted” AR modulators with respect to AR conformation (FIG. 4B). […] FIG. 4B is the converse of 4A. It compares the ability of six ligands (DHT, MPA, CYP, RU486, FLUT and DHEAs to interact with AR in the presence of each of four peptides (D30, 5G11, B8H3 and […]). Thus, it is a “fingerprint” of each of the six ligands using a four peptide panel. (Note that “1269” and D30” refer to the same peptide.)

[4] = target: T2, Gal4 transcriptional activation domain …; experiment: cell-based or functional assay
[5] = target: T2, Gal4 transcriptional activation domain …; experiment: cell-based or functional assay; remark: listed apart in the source
[6] = target: ER β (immobilized, in vitro phage assays) (UniProt Q92731 1-530, limits assumed); experiment: phage ELISA; ICI 182,780 1 µM
ER β (immobilized, in vitro phage assays), sequence (Q92731 whole entry): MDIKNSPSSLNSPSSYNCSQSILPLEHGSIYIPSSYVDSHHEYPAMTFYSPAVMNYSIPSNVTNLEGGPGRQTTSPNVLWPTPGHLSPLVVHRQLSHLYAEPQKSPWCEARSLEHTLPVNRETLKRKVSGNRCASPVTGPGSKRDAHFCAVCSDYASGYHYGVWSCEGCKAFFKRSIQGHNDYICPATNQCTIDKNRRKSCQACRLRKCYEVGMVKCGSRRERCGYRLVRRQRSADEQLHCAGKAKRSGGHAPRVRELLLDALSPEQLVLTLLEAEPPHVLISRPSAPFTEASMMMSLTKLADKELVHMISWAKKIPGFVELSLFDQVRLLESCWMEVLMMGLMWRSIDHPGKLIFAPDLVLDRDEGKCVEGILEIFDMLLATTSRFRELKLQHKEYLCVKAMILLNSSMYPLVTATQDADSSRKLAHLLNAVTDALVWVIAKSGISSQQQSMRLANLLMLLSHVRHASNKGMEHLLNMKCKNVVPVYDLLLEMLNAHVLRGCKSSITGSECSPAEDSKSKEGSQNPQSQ

Molecule	β-galactosidase activity, yeast two-hybrid; CPA [4]	β-galactosidase activity, yeast two-hybrid; DHT [4]	β-galactosidase activity, yeast two-hybrid; No Lig [4]	β-galactosidase activity, yeast two-hybrid; RU [4]	Fold induction, yeast two-hybrid [5] [fold]	also measured
EFQQCMCAEVKSWLGGSLDLQPS* [B8E9]	–	–	–	–	–	Fold induction (androgen receptor [1]; untitled table before Table 503, values match DHT / No Lig of Table 503): 4; ligand induced β-galactosidase activity, CPA (androgen receptor [1]; yeast two-hybrid, ligand CPA): 0.5635; ligand induced β-galactosidase activity, DHT (androgen receptor [1]; yeast two-hybrid, ligand DHT): 1.75; ligand induced β-galactosidase activity, RU (androgen receptor [1]; yeast two-hybrid, ligand RU): 0.8; ligand induced β-galactosidase activity, No Lig (androgen receptor [1]; yeast two-hybrid, no ligand): 0.4989; Binding to the androgen receptor in the presence of both agonists and known antagonists (androgen receptor [2]; ligand present): displays binding; Binding to the androgen receptor in the absence of ligand (androgen receptor [2]; no ligand): not; luciferase normalized to β-galactosidase, CYP. (androgen receptor [3]): 16.02; luciferase normalized to β-galactosidase, DHT (androgen receptor [3]; mammalian two-hybrid, Huh-7 cells, ligand DHT): 19.64; luciferase normalized to β-galactosidase, MPA (androgen receptor [3]; mammalian two-hybrid, Huh-7 cells, ligand MPA): 18.51; luciferase normalized to β-galactosidase, RU486 (androgen receptor [3]; mammalian two-hybrid, Huh-7 cells, ligand RU486): 10.1916; luciferase normalized to β-galactosidase, no compound (androgen receptor [3]; mammalian two-hybrid, Huh-7 cells, no compound): 0.2091
B2A7 (peptide) MKLLSSIEQACDICRLKKLKCSKEKPKCAKCLKNNWECRYSPKTKRSPLTRAHLTEVESRLERLEQLFLLIFPREDLDMILKMDSLQDIKALLTGLFVQDNVNKDAVTDRLASVETDMPLTLRQHRISATSSSEESSNKGQRQLTVSEFPELLAMTRWGRHAALLEPQRLPPPRTTTQPQTEFERMFFFTRPMRTTGLLDLQPS	0.292	1.72	0.371	0.5	5	–
M2H3 (peptide) MKLLSSIEQACDICRLKKLKCSKEKPKCAKCLKNNWECRYSPKTKRSPLTRAHLTEVESRLERLEQLFLLIFPREDLDMILKMDSLQDIKALLTGLFVQDNVNKDAVTDRLASVETDMPLTLRQHRISATSSSEESSNKGQRQLTVSEFRQSFVSEILGGGWLPLDLQPS	8.59	24.1	2.53	6.8	10	–
M4D1 (peptide) MKLLSSIEQACDICRLKKLKCSKEKPKCAKCLKNNWECRYSPKTKRSPLTRAHLTEVESRLERLEQLFLLIFPREDLDMILKMDSLQDIKALLTGLFVQDNVNKDAVTDRLASVETDMPLTLRQHRISATSSSEESSNKGQRQLTVSEFRFPFHEMVREWESMGLERVRYAEP	-0.0396	0.395	0	0.1	> 2	–
SSLDLSQFPMTASFLRESR (also called 35Eβ) [β II (B2)]	–	–	–	–	–	phage ELISA grade [6]: 0
B8A10 (peptide) MKLLSSIEQACDICRLKKLKCSKEKPKCAKCLKNNWECRYSPKTKRSPLTRAHLTEVESRLERLEQLFLLIFPREDLDMILKMDSLQDIKALLTGLFVQDNVNKDAVTDRLASVETDMPLTLRQHRISATSSSEESSNKGQRQLTVSEFVNWDAVVPWSELVALLDLQPS	0.395	0.616	0.875	0.4	1	–
SSPGSREWFKDMLSR (also called 14Tβ; 14T-β) [α/β V (AB5)]	–	–	–	–	–	phage ELISA grade [6]: 0
